Data taken from paper PMC10076222, “From primordial clocks to circadian oscillators” (Nature, 2023).

Key:
KaiCRS-Δcoil = molecular target: T1, KaiCRS-Δcoil (Cereibacter sphaeroides, UniProt A0AAX7FLD9, E415S/E416S); assay: X-ray crystal structure; assay type: binding; details: ADP in all active sites
T1 construct: C-terminal coiled-coil truncated at Glu490 (stop codon introduced at position 490)

KaiCRS = KaiCRS (Cereibacter sphaeroides, UniProt A0AAX7FLD9, E415S/E416S); assay: […] phosphoryl transfer from phosphoserine to ADP, TLC autoradiography; assay type: biochemical; details: 4 mM ADP, ATP synthase reaction in CII domain, Ser413, pH 6.5, 30 °C
[1] = molecular target: KaiC from Rhodobacter sphaeroides KD131, wild type, full length (KaiCRS) (Rhodobacter sphaeroides strain KD131/KCTC 12085); assay: fluorescence polarisation; anisotropy competition, 30 °C: KaiBRS-6IAF (0.2-0.4 μM) with KaiCRS (1 μM), unlabelled KaiBRS 0-50 μM, 20 mM MOPS pH 6.5, 50 mM NaCl, 2 mM TCEP, 10 mM MgCl2, 4 mM ADP; 4 h or 12 h; Kd calculated from IC50
[2] = molecular target: KaiCRS-S413E/S414E (phosphomimetic mutant) (Rhodobacter sphaeroides strain KD131/KCTC 12085); assay: as above
[3] = molecular target: KaiCRS-S413E/S414E (phosphomimetic mutant) (Rhodobacter sphaeroides strain KD131/KCTC 12085); assay: cryo-EM structure; KaiCRS-S413E/S414E:KaiBRS complex, 20 mM MOPS pH 6.50, 50 mM NaCl, 2 mM TCEP, 10 mM MgCl2, 2 mM ATP; ADP in the CI domain
[4] = molecular target: KaiC from Rhodobacter sphaeroides KD131, wild type, full length (KaiCRS) (Rhodobacter sphaeroides strain KD131/KCTC 12085)
[5] = molecular target: KaiC from Rhodobacter sphaeroides KD131, wild type, full length (KaiCRS) (Rhodobacter sphaeroides strain KD131/KCTC 12085); remark: listed apart in the source
[6] = molecular target: KaiCRS-S413E/S414E (phosphomimetic mutant) (Rhodobacter sphaeroides strain KD131/KCTC 12085); assay: cryo-EM structure; KaiCRS-S413E/S414E alone, 4.3 mg/ml in 20 mM MOPS pH 6.50, 50 mM NaCl, 2 mM TCEP, 10 mM MgCl2, 2 mM ATP; hexamers processed with C6, dodecamer with D6 symmetry
[7] = molecular target: His6-MBP-TEV-KaiBRS (KaiBRS-tag) (Rhodobacter sphaeroides strain KD131/KCTC 12085); assay: pull-down; as a10 but with 4 mM ATP and an ATP-recycling system instead of ADP
[8] = molecular target: KaiCRS-CI domain (KaiCIRS) (Rhodobacter sphaeroides strain KD131/KCTC 12085); assay: SEC; Superdex-200 10/300 GL, about 40-80 μM protein, 20 mM MOPS pH 6.5, 50 mM NaCl, 2 mM TCEP, 10 mM MgCl2, 1 mM ATP, 4 °C
[9] = molecular target: KaiCRS-Δcoil (KaiCRS truncated at residue Glu490) (Rhodobacter sphaeroides strain KD131/KCTC 12085); assay: crystal structure; KaiCRS-Δcoil, sitting drop at 291 K; 200 mM ammonium acetate, 100 mM sodium citrate pH 5.6, 30% PEG 4,000; space group C2221, three monomers in the asymmetric unit, hexamer by PISA
[10] = molecular target: KaiCRS-Δcoil (KaiCRS truncated at residue Glu490) (Rhodobacter sphaeroides strain KD131/KCTC 12085); assay: AUC; sedimentation velocity, 30,000 r.p.m., 20 °C, 295 nm; 100 μM protein, 1 mM ATP (KaiCRS forms: 20 mM MOPS pH 6.5, 50 mM NaCl; KaiCSE: 20 mM MOPS pH 8.0, 150 mM NaCl)
[11] = molecular target: KaiCRS-Δcoil (KaiCRS truncated at residue Glu490) (Rhodobacter sphaeroides strain KD131/KCTC 12085); assay: SEC; Superdex-200 10/300 GL, about 40-80 μM protein, 20 mM MOPS pH 6.5, 50 mM NaCl, 2 mM TCEP, 10 mM MgCl2, 1 mM ATP, 4 °C
[12] = molecular target: KaiC from Rhodobacter sphaeroides KD131, wild type, full length (KaiCRS) (Rhodobacter sphaeroides strain KD131/KCTC 12085); assay: SEC; Superdex-200 10/300 GL, unphosphorylated KaiCRS (40 μM) bound with ADP, buffer with 0.1 mM ADP instead of ATP, 4 °C
[13] = molecular target: KaiC from Rhodobacter sphaeroides KD131, wild type, full length (KaiCRS) (Rhodobacter sphaeroides strain KD131/KCTC 12085); assay: AUC; sedimentation velocity, 30,000 r.p.m., 20 °C, 295 nm; 100 μM protein, 1 mM ATP (KaiCRS forms: 20 mM MOPS pH 6.5, 50 mM NaCl; KaiCSE: 20 mM MOPS pH 8.0, 150 mM NaCl)
[14] = molecular target: KaiC from Rhodobacter sphaeroides KD131, wild type, full length (KaiCRS) (Rhodobacter sphaeroides strain KD131/KCTC 12085); assay: crystal structure; KaiCRS, sitting drop at 291 K; protein 10 mg/ml in 20 mM MOPS pH 6.5, 50 mM NaCl, 2 mM TCEP, 5 mM MgCl2, 3 mM ATP, 1 mM AMPPCP; 200 mM MgCl2, 100 mM HEPES pH 7.5, 30% PEG 400
[15] = molecular target: KaiC from Rhodobacter sphaeroides KD131, wild type, full length (KaiCRS) (Rhodobacter sphaeroides strain KD131/KCTC 12085); assay: SEC; Superdex-200 10/300 GL, about 40-80 μM protein, 20 mM MOPS pH 6.5, 50 mM NaCl, 2 mM TCEP, 10 mM MgCl2, 1 mM ATP, 4 °C
[16] = molecular target: the molecule itself; assay: SEC; Superdex-75 10/300 GL, KaiBRS 0.5 mM, 20 mM MOPS pH 6.5, 50 mM NaCl, 2 mM TCEP, 4 °C
[17] = molecular target: the molecule itself; assay: AUC; sedimentation velocity, 30,000 r.p.m., 20 °C, 295 nm; 100 μM protein, 1 mM ATP (KaiCRS forms: 20 mM MOPS pH 6.5, 50 mM NaCl; KaiCSE: 20 mM MOPS pH 8.0, 150 mM NaCl)

Sequence of His6-MBP-TEV-KaiBRS (KaiBRS-tag) (Rhodobacter sphaeroides strain KD131/KCTC 12085) (main, as listed by the source): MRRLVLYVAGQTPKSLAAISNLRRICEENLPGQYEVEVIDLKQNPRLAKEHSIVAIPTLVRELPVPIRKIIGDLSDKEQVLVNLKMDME
T1 sequence (A0AAX7FLD9 entry or part of it E415S/E416S): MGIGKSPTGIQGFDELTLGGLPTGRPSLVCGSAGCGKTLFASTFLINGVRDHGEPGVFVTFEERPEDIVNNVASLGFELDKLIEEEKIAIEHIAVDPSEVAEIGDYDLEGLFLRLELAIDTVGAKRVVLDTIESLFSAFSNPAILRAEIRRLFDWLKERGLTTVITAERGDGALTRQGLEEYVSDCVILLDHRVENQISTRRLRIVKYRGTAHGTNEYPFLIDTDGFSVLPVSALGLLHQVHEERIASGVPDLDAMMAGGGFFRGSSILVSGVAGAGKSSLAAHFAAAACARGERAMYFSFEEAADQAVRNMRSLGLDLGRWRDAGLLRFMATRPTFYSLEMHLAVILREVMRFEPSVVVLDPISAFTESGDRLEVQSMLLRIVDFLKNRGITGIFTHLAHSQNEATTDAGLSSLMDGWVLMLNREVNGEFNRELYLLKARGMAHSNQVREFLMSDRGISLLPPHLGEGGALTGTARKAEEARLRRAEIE
Sequence of KaiCRS (A0AAX7FLD9 entry or part of it E415S/E416S): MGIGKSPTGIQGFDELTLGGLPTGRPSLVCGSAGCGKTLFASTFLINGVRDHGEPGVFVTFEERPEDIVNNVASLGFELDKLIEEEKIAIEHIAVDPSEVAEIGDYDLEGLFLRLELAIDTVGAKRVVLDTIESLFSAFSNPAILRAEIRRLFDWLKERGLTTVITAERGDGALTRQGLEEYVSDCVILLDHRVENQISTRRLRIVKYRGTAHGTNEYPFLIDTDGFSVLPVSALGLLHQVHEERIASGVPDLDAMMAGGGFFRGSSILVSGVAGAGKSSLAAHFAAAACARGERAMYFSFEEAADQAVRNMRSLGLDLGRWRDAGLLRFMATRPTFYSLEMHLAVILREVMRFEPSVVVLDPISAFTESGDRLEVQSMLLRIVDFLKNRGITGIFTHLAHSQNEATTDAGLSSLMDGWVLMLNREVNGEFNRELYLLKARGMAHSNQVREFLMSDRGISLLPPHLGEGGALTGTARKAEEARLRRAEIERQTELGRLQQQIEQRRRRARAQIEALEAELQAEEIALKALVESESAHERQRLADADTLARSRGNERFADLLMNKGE

For `Nc1ncnc2c1ncn2[C@@H]1O[C@H](COP(=O)(O)OP(=O)(O)O)[C@@H](O)[C@H]1O` [ADP], the X-ray crystal structure (KaiCRS-Δcoil) was “contained three monomers in the asymmetric unit, with ADP present in all active sites” and the “32P phosphoryl transfer from phosphoserine to ADP, TLC autoradiography” value (KaiCRS) was “KaiCRS undergoes dephosphorylation through an ATP synthase mechanism”.

With “KaiB from Rhodobacter sphaeroides KD131 (KaiBRS), tag cleaved (natural protein)” the Kd [1] was 420 nM, the Kd [2] was 790 nM and the stoichiometry N (KaiBRS per KaiCRS dodecamer) [3] was 12. For the same molecule, the ATPase activity of KaiCRS (3.5 μM) with KaiBRS (3.5 μM) in 4 mM ATP, ADP by HPLC, 20-35 °C (with KaiBRS 176, 1052, 1557, 2584; alone 108, 163, 208, 300 day^-1 KaiC^-1) [4] was 2580 ATP/day/KaiC and the fold increase in ATPase activity of KaiCRS with KaiBRS at 30 °C [5] was 7.5 fold.

“KaiCRS-S413E/S414E (phosphomimetic mutant) (enzyme)” showed a stoichiometry N [3] of 12, a stoichiometry N [6] of 12 and a percent co-eluted [7] of under 30%.

“KaiCRS-CI domain (KaiCIRS) (domain or fragment)” gave a stoichiometry N [8] of 6.

Work on KaiCRS-S413A/S414A (enzyme) yielded a percent co-eluted [7] of under 30%.

With “KaiCRS-Δcoil (KaiCRS truncated at residue Glu490) (domain or fragment)” the stoichiometry N [9] was 6, the stoichiometry N [10] was 6 and the stoichiometry N [11] was 6.

Molecule “KaiC from Rhodobacter sphaeroides KD131, wild type, full length (KaiCRS) (enzyme)” has a stoichiometry N [12] of 12, a stoichiometry N [13] of 12 and a stoichiometry N [14] of 12. It also gave a stoichiometry N [15] of 12.

“phosphorylated wild-type KaiCRS (ATP-bound, with ATP-recycling system) (enzyme)” showed a percent co-eluted [7] of under 30%.

B1: KaiB from Synechococcus elongatus PCC 7942 (KaiBSE) (natural protein, UniProt Q79PF5 1-102, looked up)
chain: MSPRKTYILKLYVAGNTPNSVRALKTLKNILEVEFQGVYALKVIDVLKNPQLAEEDKILATPTLAKVLPLPVRRIIGDLSDREKVLIGLDLLYGELQDSDDF
notes: KaiB of Synechococcus elongatus PCC 7942
B1 was tested, and the “stoichiometry N” value [16] was 4.

B2: KaiC from Synechococcus elongatus PCC 7942 (KaiCSE) (enzyme)
chain: MTSAEMTSPNNNSEHQAIAKMRTMIEGFDDISHGGLPIGRSTLVSGTSGTGKTLFSIQFLYNGIIEFDEPGVFVTFEETPQDIIKNARSFGWDLAKLVDEGKLFILDASPDPEGQEVVGGFDLSALIERINYAIQKYRARRVSIDSVTSVFQQYDASSVVRRELFRLVARLKQIGATTVMTTERIEEYGPIARYGVEEFVSDNVVILRNVLEGERRRRTLEILKLRGTSHMKGEYPFTITDHGINIFPLGAMRLTQRSSNVRVSSGVVRLDEMCGGGFFKDSIILATGATGTGKTLLVSRFVENACANKERAILFAYEESRAQLLRNAYSWGMDFEEMERQNLLKIVCAYPESAGLEDHLQIIKSEINDFKPARIAIDSLSALARGVSNNAFRQFVIGVTGYAKQEEITGLFTNTSDQFMGAHSITDSHISTITDTIILLQYVEIRGEMSRAINVFKMRGSWHDKAIREFMISDKGPDIKDSFRNFERIISGSPTRITVDEKSELSRIVRGVQEKGPES
notes: KaiC of Synechococcus elongatus PCC 7942; source: plasmid a gift from E. K. O'Shea
B2 was tested, and the “stoichiometry N” value [17] was 6.
